Numbering of substitutions follows the chain as printed. Numbers in names are those of the source.
B1: W3195-1.53.1-uIgG1L (antibody)
heavy: not shown
light: SYELTQPPSVSVSPGQTANITCSGDKLGDKFASWYQQKSGQSPVVVIYQDNKRPSGFPERFSGSNSGNTATLTISGTQAMDEADYYCQAWDSSIVVFGGGTKLTVLGQPKAAPSVTLFPPSSEELQANKATLVCLISDFYPGAVTVAWKADSSPVKAGVETTTPSKQSNNKYAASSYLSLTPEQWKSHRSYSCQVTHEGSTVEKTVAPTECS
notes: Fully human IgG1 from an OmniRat hybridoma, converted to human IgG1; also called parental antibody; parental mAb
B2: W3195-1.53.1-p3-uIgG1L (antibody)
heavy: not shown
light: B1 light with T21A
notes: also called W3195-p3 antibody
B3: W3195-1.53.1-p4-uIgG1LV320 (antibody, V domains shown)
VH: QVQLQESGPGLVKPSETLSLTCTVSGGSVISDNYYWTWVRQPPGKGLEFIGYIYYRGSTNYNPSLKNRVIISIDTSRNQFSLDLNSVTAADTAVYYCARDRRTGNALPFDNWGQGTLVTVSS
VL: SYELTQPPSVSVSPGQTAQITCSGDKLGDKFASWYQQKSGQSPVVVIYQDNKRPSGFPERFSGSNSGNTATLTISGTQAMDEADYYCQAWDSSIVVFGGGTKLTVLG
notes: V320 = IgG1 Fc with L234A/L235A; also called W3195-1.53.1-p4-uIgG1V320; W3195-p4-V320 antibody
B4: W3195-1.53.1-p6-uIgG1LV320 (antibody, V domains shown)
VH: B3 VH with N105T, A106S
VL: B3 VL
notes: also called W3195-1.53.1-p6-uIgG1V320; W3195-p6-V320 antibody
B5: W3195-1.53.1-p7-uIgG1LV320 (antibody, V domains shown)
VH: B3 VH with N105S, A106S
VL: B3 VL
notes: also called W3195-1.53.1-p7-uIgG1V320; W3195-p7-V320 antibody
B6: W3195-1.53.1-p5-uIgG1LV320 (antibody, V domains shown)
VH: B3 VH with N105Q, A106S
VL: B3 VL
notes: also called W3195-1.53.1-p5-uIgG1V320; W3195-p5-V320 antibody

biological target: T1, Human P-cadherin on cells (human, UniProt P22223 108-829); experiment: FACS on DU-145 cells
T1 construct: whole, on cells; Endogenous P-cadherin on tumour cell lines; also called hPro1
Procedure: (§1) Binding of the test antibodies to P-cadherin expressed on cells was determined by flow cytometry analysis. […] 1×10⁵ cells/well (100 μL) were added to each well of a 96-well U-plate (Corning, #3799) and centrifuged at 1500 rpm (Eppendorf, #5810R) for 5 minutes before removing the supernatant. Antibodies serially diluted in 1% BSA/1×PBS (Ca+/Mg+) were added at 100 μL/well to the pelleted cells and incubated at 4° C. for 1 hour. Anon-related hIgG1 antibody was used as an isotype control. Cells were washed two times with 180 μL/well of 1% BSA/1×PBS (Ca+/Mg+) by centrifugation at 1500 rpm for 5 minutes at 4° C. Pelleted cells were resuspended in 100 μL/well Alexa647 conjugated Goat anti-human IgG Fc (Jackson, #109-605-098) 1:500 diluted in 1% BSA/1×PBS (Ca+/Mg+) for 30 minutes at 4° C. in the dark. Cells were then washed two times as described above. After the final wash, cells were resuspended in 100 μL 1% BSA/1×PBS (Ca+/Mg+) and fluorescence values were measured with a FACS Canto II cytometer (BD Biosciences). The amount of cell surface bound anti-P-cadherin antibody was assessed by measuring the mean fluorescence (MFI). The FACS raw data were analyzed by FlowJo software, wells containing no antibody or secondary antibody only were used to establish background fluorescence. Binding EC50 values were obtained by the four-parameter non-linear regression analysis using GraphPad Prism6 software.

T1 sequence (P22223 108-829): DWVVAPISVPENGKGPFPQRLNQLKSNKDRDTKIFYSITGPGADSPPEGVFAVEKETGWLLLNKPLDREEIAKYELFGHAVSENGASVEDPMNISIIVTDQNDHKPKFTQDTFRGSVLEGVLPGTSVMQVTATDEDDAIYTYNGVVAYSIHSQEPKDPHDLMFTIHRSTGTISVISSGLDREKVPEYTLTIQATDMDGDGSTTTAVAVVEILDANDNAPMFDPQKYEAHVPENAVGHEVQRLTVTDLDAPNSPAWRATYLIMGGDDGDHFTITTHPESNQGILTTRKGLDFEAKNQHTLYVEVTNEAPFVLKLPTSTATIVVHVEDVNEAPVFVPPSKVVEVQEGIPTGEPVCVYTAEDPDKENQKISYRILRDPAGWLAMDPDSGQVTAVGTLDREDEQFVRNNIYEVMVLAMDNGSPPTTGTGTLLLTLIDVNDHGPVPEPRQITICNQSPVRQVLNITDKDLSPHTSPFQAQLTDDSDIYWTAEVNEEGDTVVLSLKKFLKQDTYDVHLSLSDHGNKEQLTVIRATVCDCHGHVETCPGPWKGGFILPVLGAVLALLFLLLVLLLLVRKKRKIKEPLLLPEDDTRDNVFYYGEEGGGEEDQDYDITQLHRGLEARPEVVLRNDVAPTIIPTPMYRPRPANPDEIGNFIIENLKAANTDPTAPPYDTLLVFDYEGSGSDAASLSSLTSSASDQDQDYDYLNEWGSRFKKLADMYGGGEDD

EC50	Max MFI	Binder
0.05 nM	2090	B1
0.05 nM	2140	B2

biological target: T1, Human P-cadherin on cells; experiment: FACS on DU-145 cells; remark: another data set of the same source
Procedure: as §1

EC50	Max MFI	Binder
0.12 nM	2160	B3
0.1 nM	2290	B4
0.09 nM	2280	B5
0.12 nM	2240	B6

biological target: T1, Human P-cadherin on cells; experiment: cell-based or functional assay

internalization, Fab-ZAP CTG assay on HCC-1954, IC50	Binder
0.02 nM	B2

biological target: T1, Human P-cadherin on cells; experiment: FACS on HCT-116 cells
Procedure: as §1
Binding of the antibodies to human P-cadherin expressed on cells was determined by flow cytometry analysis.

EC50	Max MFI	Binder
0.14 nM	4190	B3
0.14 nM	4180	B4
0.14 nM	4230	B5
0.17 nM	4170	B6

biological target: T1, Human P-cadherin on cells; experiment: cell-based or functional assay; remark: another data set of the same source

internalization, Fab-ZAP on HCC-1954, IC50	internalization, Fab-ZAP on HCC-1954, Max Inh %	Binder
0.063 nM	80%	B3
0.063 nM	79%	B4
0.059 nM	79%	B5
0.058 nM	82%	B6

Source: patent publication US20240034786A1 (WUXI BIOLOGICS IRELAND, published 2024)
